Substitutions are numbered along the chain they refer to. Names and notes keep the numbering of the source.
T1: Human CD3eg linker (human)
T1 construct: Single chain: epsilon and gamma subunits of human CD3 joined by a 29-mer linker, Flag-tag at the C-terminus; also called recombinant human CD3
T1 chain: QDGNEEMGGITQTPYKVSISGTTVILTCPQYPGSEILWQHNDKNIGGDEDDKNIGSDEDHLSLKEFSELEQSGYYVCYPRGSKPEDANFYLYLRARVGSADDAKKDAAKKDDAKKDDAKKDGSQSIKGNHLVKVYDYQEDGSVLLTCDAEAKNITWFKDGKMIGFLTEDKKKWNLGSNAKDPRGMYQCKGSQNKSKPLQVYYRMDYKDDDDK

B1: H183/L072 VH D101I (antibody, name in Kabat numbering, V domains shown)
VH: QVQLVESGGGLVQPGRSLRLSCAASGFTFSNAWMHWVRQAPGKGLEWVAQIKDKGNAYAAYYAPSVKGRFTISRDDSKNSIYLQMNSLKTEDTAVYYCHYVHYASASTVLPAFGVIAWGQGTTVTVSS
VL: DIVMTQSPLSLPVTPGEPASISCQASQELVHMNRNTYLHWYQQKPGQAPRLLIYKVSNRFPGVPDRFSGSGSGTDFTLKISRVEAEDVGVYYCAQGTSVPFTFGQGTKLEIK
B2: H183/L072 VH F29D (antibody, name in Kabat numbering, V domains shown)
VH: B1 VH with F29D, I116D
VL: B1 VL
B3: H183/L072 VH D101M (antibody, name in Kabat numbering, V domains shown)
VH: B1 VH with I116M
VL: B1 VL
B4: H183/L072 VH F27N (antibody, name in Kabat numbering, V domains shown)
VH: B1 VH with F27N, I116D
VL: B1 VL
B5: H183/L072 VH F27P (antibody, name in Kabat numbering, V domains shown)
VH: B1 VH with F27P, I116D
VL: B1 VL
B6: H183/L072 VH F29T (antibody, name in Kabat numbering, V domains shown)
VH: B1 VH with F29T, I116D
VL: B1 VL
B7: H183/L072 VH F27Y (antibody, name in Kabat numbering, V domains shown)
VH: B1 VH with F27Y, I116D
VL: B1 VL
B8: H183/L072 VH F27A (antibody, name in Kabat numbering, V domains shown)
VH: B1 VH with F27A, I116D
VL: B1 VL
B9: H183/L072 VH F29S (antibody, name in Kabat numbering, V domains shown)
VH: B1 VH with F29S, I116D
VL: B1 VL
B10: H183/L072 VH F27D (antibody, name in Kabat numbering, V domains shown)
VH: B1 VH with F27D, I116D
VL: B1 VL
B11: H183/L072 VH F27R (antibody, name in Kabat numbering, V domains shown)
VH: B1 VH with F27R, I116D
VL: B1 VL
B12: H183/L072 VH F27W (antibody, name in Kabat numbering, V domains shown)
VH: B1 VH with F27W, I116D
VL: B1 VL
B13: H183/L072 VH F29V (antibody, name in Kabat numbering, V domains shown)
VH: B1 VH with F29V, I116D
VL: B1 VL
B14: H183/L072 VH F29Q (antibody, name in Kabat numbering, V domains shown)
VH: B1 VH with F29Q, I116D
VL: B1 VL
B15: H183/L072 VH F100gA (antibody, name in Kabat numbering, V domains shown)
VH: B1 VH with F113A, I116D
VL: B1 VL
B16: H183/L072 VH F27E (antibody, name in Kabat numbering, V domains shown)
VH: B1 VH with F27E, I116D
VL: B1 VL
B17: H183/L072 VH D101L (antibody, name in Kabat numbering, V domains shown)
VH: B1 VH with I116L
VL: B1 VL
B18: H183/L072 VH F27H (antibody, name in Kabat numbering, V domains shown)
VH: B1 VH with F27H, I116D
VL: B1 VL
B19: H183/L072 VH F29E (antibody, name in Kabat numbering, V domains shown)
VH: B1 VH with F29E, I116D
VL: B1 VL
B20: H183/L072 VH F27I (antibody, name in Kabat numbering, V domains shown)
VH: B1 VH with F27I, I116D
VL: B1 VL
B21: H183/L072 VH F27K (antibody, name in Kabat numbering, V domains shown)
VH: B1 VH with F27K, I116D
VL: B1 VL
B22: H183/L072 VH F100gI (antibody, name in Kabat numbering, V domains shown)
VH: B1 VH with F113I, I116D
VL: B1 VL
B23: H183/L072 VH F29Y (antibody, name in Kabat numbering, V domains shown)
VH: B1 VH with F29Y, I116D
VL: B1 VL
B24: H183/L072 VH D101P (antibody, name in Kabat numbering, V domains shown)
VH: B1 VH with I116P
VL: B1 VL
B25: H183/L072 VH F29K (antibody, name in Kabat numbering, V domains shown)
VH: B1 VH with F29K, I116D
VL: B1 VL
B26: H183/L072 VH F29R (antibody, name in Kabat numbering, V domains shown)
VH: B1 VH with F29R, I116D
VL: B1 VL
B27: H183/L072 VH F29H (antibody, name in Kabat numbering, V domains shown)
VH: B1 VH with F29H, I116D
VL: B1 VL
B28: H183/L072 VH F29G (antibody, name in Kabat numbering, V domains shown)
VH: B1 VH with F29G, I116D
VL: B1 VL
B29: H183/L072 VH F27M (antibody, name in Kabat numbering, V domains shown)
VH: B1 VH with F27M, I116D
VL: B1 VL
B30: H183/L072 VH F27G (antibody, name in Kabat numbering, V domains shown)
VH: B1 VH with F27G, I116D
VL: B1 VL
B31: H183/L072 VH F29P (antibody, name in Kabat numbering, V domains shown)
VH: B1 VH with F29P, I116D
VL: B1 VL
B32: H183/L072 VH F27S (antibody, name in Kabat numbering, V domains shown)
VH: B1 VH with F27S, I116D
VL: B1 VL
B33: H183/L072 VH F27L (antibody, name in Kabat numbering, V domains shown)
VH: B1 VH with F27L, I116D
VL: B1 VL
B34: H183/L072 VH F27V (antibody, name in Kabat numbering, V domains shown)
VH: B1 VH with F27V, I116D
VL: B1 VL
B35: H183/L072 VH F29W (antibody, name in Kabat numbering, V domains shown)
VH: B1 VH with F29W, I116D
VL: B1 VL
B36: H183/L072 VH F29M (antibody, name in Kabat numbering, V domains shown)
VH: B1 VH with F29M, I116D
VL: B1 VL
B37: H183/L072 VH F29L (antibody, name in Kabat numbering, V domains shown)
VH: B1 VH with F29L, I116D
VL: B1 VL
B38: H183/L072 VH F27T (antibody, name in Kabat numbering, V domains shown)
VH: B1 VH with F27T, I116D
VL: B1 VL
B39: H183/L072 VH F29N (antibody, name in Kabat numbering, V domains shown)
VH: B1 VH with F29N, I116D
VL: B1 VL
B40: H183/L072 VH F29A (antibody, name in Kabat numbering, V domains shown)
VH: B1 VH with F29A, I116D
VL: B1 VL
B41: H183/L072 VH F27Q (antibody, name in Kabat numbering, V domains shown)
VH: B1 VH with F27Q, I116D
VL: B1 VL
B42: H183/L072 VH F29I (antibody, name in Kabat numbering, V domains shown)
VH: B1 VH with F29I, I116D
VL: B1 VL

Biological target: T1, Human CD3eg linker
Test: Biacore SPR, vs template H183/L072

| fold change of affinity [fold] | Binder |
| --- | --- |
| 0.6 | B1 |
| 0 | B2 |
| 0.7 | B3 |
| 0.4 | B4 |
| 0 | B5 |
| 0.2 | B6 |
| 0 | B7 |
| 0.2 | B8 |
| 0.1 | B9 |
| 0 | B10 |
| 0.2 | B11 |
| 0 | B12 |
| 0 | B13 |
| 0.2 | B14 |
| 1.7 | B15 |
| 0 | B16 |
| 2.3 | B17 |
| 0.1 | B18 |
| 0.1 | B19 |
| 0.6 | B20 |
| 0.3 | B21 |

| fold change of affinity [fold] | Binder |
| --- | --- |
| 1.2 | B22 |
| 0.4 | B23 |
| 0 | B24 |
| 0.1 | B25 |
| 0 | B26 |
| 0 | B27 |
| 0 | B28 |
| 0.5 | B29 |
| 0.5 | B30 |
| 0.2 | B31 |
| 0 | B32 |
| 0.4 | B33 |
| 0.3 | B34 |
| 0.5 | B35 |
| 0.4 | B36 |
| 0.4 | B37 |
| 0 | B38 |
| 0 | B39 |
| 0.2 | B40 |
| 0 | B41 |
| 0.3 | B42 |

Reference: patent US20210388087A1 (Chugai, published 2021)
